Assay results taken from patent US20220403048A1, “BINDING MOLECULES TO ARGINASE II [ARG2]” (Cancer Research Technology Limited, priority 2019, published 2022).

Target: T1, trimeric human ARG2 (Homo sapiens, UniProt P78540)
T1 construct: human ARG2 (aa23-354); His10 (C); made in house; host or cells: E. coli BL21 (DE3)
T1 sequence (P78540 23-354): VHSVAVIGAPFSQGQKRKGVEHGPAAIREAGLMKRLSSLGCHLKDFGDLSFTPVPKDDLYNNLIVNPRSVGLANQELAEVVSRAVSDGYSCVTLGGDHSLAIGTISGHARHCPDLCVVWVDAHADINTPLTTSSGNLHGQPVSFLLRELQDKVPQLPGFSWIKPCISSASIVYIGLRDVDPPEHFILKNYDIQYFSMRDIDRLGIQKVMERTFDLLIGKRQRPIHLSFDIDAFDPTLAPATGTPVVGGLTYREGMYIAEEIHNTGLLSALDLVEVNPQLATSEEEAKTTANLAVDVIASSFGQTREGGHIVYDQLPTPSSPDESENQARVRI
Assay: Human trimeric ARG2 enzyme inhibition assay (urea production)
Type: biochemical
Procedure: Unpurified anti-ARG2 scFv fragments from periplasmic preparations were screened in an ARG2 enzyme inhibition assay using a Pherastar plate reader (BMG Labtech, Germany). In this assay, the ability of unpurified scFv to inhibit the enzymatic activity of trimeric ARG2 was determined by measuring the production of urea, the product of L-arginine turnover by ARG2.
Selection outputs were screened as unpurified bacterial periplasmic extracts containing scFv, prepared in 200 mM TES buffer pH 7.4, 0.5 mM EDTA and 0.5 M sucrose. 10 μl of unpurified scFv were added to a Greiner Bio-One® 384 well assay plate (Greiner Bio-one, UK; cat: 781901). This was followed by the addition of 5 μl of 1.6 μg/ml trimeric human ARG2 that had been diluted in 40 mM MnCl2, 100 mM tris-HCl, pH7.4 (4× enzyme buffer). […]
Urea was detected by the simultaneous addition of equal volumes of O-Phthaldialdehyde (1.5 mM O-Phthaldialdehyde, 7% H2SO4, 0.03% Brij L23) and N-(1-Napthyl)ethylenediamine (1.66 mM N-(1-Napthyl)ethylenediamine, 81 mM Boric acid, 21% H2SO4, 0.03% Brij L23) followed by an 18 minute incubation at room temperature before the colorimetric product was quantified on the Pherastar by measuring absorbance at 505 nm. […]
Data were analysed by calculating % maximum (max) control for each sample using the 505 nm absorbance data. % max control was determined according to equation 2. […]
IC50 values were determined by testing a dilution series of the purified scFv, prepared in TBS, in the ARG2 enzyme inhibition assay described in section 1.5, substituting the unpurified scFv periplasmic preparation with the purified scFv.
Background control wells were defined for each plate by the omission of substrate. […] Data were analysed by calculating % maximum (max) control for each sample. % max control was determined according to equation 1 detailed in section 1.5. […]
Data were again analysed by calculating % Max control values for each sample. […]

B1: C0020065: anti-ARG2 antibody, alternate lead isolation clone, VH SEQ ID NO: 2, VL SEQ ID NO: 7 (antibody, listed as Homo sapiens, V domains shown)
VH: GVNLRESGGGVVQPGRSLRLSCAASGFTFSSYAMHWVRQAPGKGLEWVAVISYDGSNKYYVDSVKGRFTISRDNSKNTLYLQMNSLRAEDTAVYYCARDSSQLWFDYWGRGTLVTVSS
VL: QSVVTQPPSVSGAPGQRVTISCTGSSSNIGTGYDVHWYQQLPGTAPKLLIYGNSNRPSGVPDRFSGSKSGTSASLAITGLQAEDEADYYCQSYDSSLSGSVVFGGGTQLTVL
modifications: C0020065
inhibition of the activity of human trimeric ARG2 (purified recombinant human IgG1, FIG. 3): inhibited | inhibition of the activity of human trimeric ARG2 (purified scFv, FIG. 2): inhibited
